Data on three molecules can be found in patent US20050112121A1 (YALE UNIVERSITY, published 2005).

B1: Serrate (Drosophila), expression construct Ser-mtn (ligand, UniProt P18168 83-1407, looked up)
chain: AGNFELEILEISNTNSHLLNGYCCGMPAELRATKTIGCSPCTTAFRLCLKEYQTTEQGASISTGCSFGNATTKILGGSSFVLSDPGVGAIVLPFTFRWTKSFTLILQALDMYNTSYPDAERLIEETSYSGVILPSPEWKTLDHIGRNARITYRVRVQCAVTYYNTTCTTFCRPRDDQFGHYACGSEGQKLCLNGWQGVNCEEAICKAGCDPVHGKCDRPGECECRPGWRGPLCNECMVYPGCKHGSCNGSAWKCVCDTNWGGILCDQDLNFCGTHEPCKHGGTCENTAPDKYRCTCAEGLSGEQCEIVEHPCATRPCRNGGTCTLKTSNRTQAQVYRTSHGRSNMGRPVRRSSSMRSLDHLRPEGQALNGSSSPGLVSLGSLQLQQQLAPDFTCDCAAGWTGPTCEINIDECAGGPCEHGGTCIDLIGGFRCECPPEWHGDVCQVDVNECEAPHSAGIAANALLTTTATAIIGSNLSSTALLAALTSAVASTSLAIGPCINAKECRNQPGSFACICKEGWGGVTCAENLDDCVGQCRNGATCIDLVNDYRCACASGFKGRDCETDIDECATSPCRNGGECVDMVGKFNCICPLGYSGSLCEEAKENCTPSPCLEGHCLNTPEGYYCHCPPDRAGKHCEQLRPLCSQPPCNEGCFANVSLATSATTTTTTTTTATTTRKMAKPSGLPCSGHGSCEMSDVGTFCKCHVGHTGTFCEHNLNECSPNPCRNGGICLDGDGDFTCECMSGWTGKRCSERATGCYAGQCQNGGTCMPGAPDKALQPHCRCAPGWTGLFCAEAIDQCRGQPCHNGGTCESGAGWFRCVCAQGFSGPDCRINVNECSPQPCQGGATCIDGIGGYSCICPPGRHGLRCEILLSDPKSACQNASNTISPYTALNRSQNWLDIALTGRTEDDENCNACVCENGTSRCTNLWCGLPNCYKVDPLSKSSNLSGVCKQHEVCVPALSETCLSSPCNVRGDCRALEPSRRVAPPRLPAKSSCWPNQAVVNENCARLTILLALERVGKGASVEGLCSLVRVLLAAQLIKKPASTFGQDPGMLMVLCDLKTGTNDTVELTVSSSKLNDPQLPVAVGLLGELLSFRQLNGIQRRKELELQHAKLAALTSIVEVKLETARVADGSGHSLLIGVLCGVFIVLVGFSVFISLYWKQRLAYRTSSGMNLTPSLDALRHEEEKSNNLQNEENLRRYTNPLKGSTSSLRAATGMELSLNPAPELAASAASSSALHRSQPLFPPCDFERELDSSTGLKQAHKRSSQILLHKTQNSDMRKNTVGSLDSPRKDFGKRSINCKSMPPSSGDEGSDVLATTVMV
notes: whole, on cells

Data set [1] deals with Delta (Drosophila), expression construct pMTDl1 (Drosophila) (UniProt P10041). The data set can be described thus: S2 cell aggregation, 24 hr.
Data set [2] has the same target. Put plainly: S2 cell aggregation at 4 C, 1-2 hr, Notch+ cells pretreated with preimmune mouse sera (control; one of three experiments).
Data set [3] concerns the target Notch (Drosophila), full length Notch expression construct #1 pMtNMg (Drosophila) (UniProt P07207). Put plainly: S2 cell aggregation, 24 hr, Notch+ cells alone.
The target of data set [4] is Delta (Drosophila), expression construct pMTDl1 (Drosophila) (UniProt P10041). Put plainly: S2 cell aggregation, 48 hr.
Data set [5] deals with the molecule itself. The data set can be described thus: S2 cell aggregation assay. From the text:
(§1) FIG. 2. Notch Expression Constructs and the Deletion Mapping of the Delta/Serrate Binding Domain. S2 cells in log phase growth were transiently transfected with the series of expression constructs shown; the drawings represent the predicted protein products of the various Notch deletion mutants created. All expression constructs were derived from construct #1 pMtNMg. Transiently transfected cells were mixed with Delta expressing cells from the stably transformed line L49-6-7 or with transiently transfected Serrate expressing cells, induced with CuSO₄, incubated under aggregation conditions and then scored for their ability to aggregate using specific antisera and immunofluorescence microscopy. Aggregates were defined as clusters of four or more cells containing both Notch and Delta/Serrate expressing cells. The values given for % Aggregation refer to the percentage of all Notch expressing cells found in such clusters either with Delta (Dl) (left column) or with Serrate (Ser) (right column). The various Notch deletion constructs are represented diagrammatically with splice lines indicating the ligation junctions. Each EGF repeat is denoted as a stippled rectangular box and numbers of the EGF repeats on either side of a ligation junction are noted. At the ligation junctions, partial EGF repeats produced by the various deletions are denoted by open boxes and closed brackets (for example see #23 ΔCla+EGF(10-12)). Constructs #3-13 represent the ClaI deletion series. As diagrammed, four of the ClaI sites, in repeats 7, 9, 17 and 26, break the repeat in the middle, immediately after the third cysteine (denoted by open box repeats; see FIG. 3 for further clarification), while the fifth and most 3′ site breaks neatly between EGF repeats 30 and 31 (denoted by closed box repeat 31; again see FIG. 3). In construct #15 split, EGF repeat 14 which carries the split point mutation, is drawn as a striped box. In construct #33 ΔCla+XEGF(10-13), the Xenopus Notch derived EGF repeats are distinguished from Drosophila repeats by a different pattern of shading. […]

The target of data set [6] is T1, Notch (Drosophila), full length Notch expression construct #1 pMtNMg (Drosophila, UniProt P07207 53-2703).
T1 construct: whole, on cells; also called intact Notch; Notch+ cells
T1 sequence (P07207 53-2703): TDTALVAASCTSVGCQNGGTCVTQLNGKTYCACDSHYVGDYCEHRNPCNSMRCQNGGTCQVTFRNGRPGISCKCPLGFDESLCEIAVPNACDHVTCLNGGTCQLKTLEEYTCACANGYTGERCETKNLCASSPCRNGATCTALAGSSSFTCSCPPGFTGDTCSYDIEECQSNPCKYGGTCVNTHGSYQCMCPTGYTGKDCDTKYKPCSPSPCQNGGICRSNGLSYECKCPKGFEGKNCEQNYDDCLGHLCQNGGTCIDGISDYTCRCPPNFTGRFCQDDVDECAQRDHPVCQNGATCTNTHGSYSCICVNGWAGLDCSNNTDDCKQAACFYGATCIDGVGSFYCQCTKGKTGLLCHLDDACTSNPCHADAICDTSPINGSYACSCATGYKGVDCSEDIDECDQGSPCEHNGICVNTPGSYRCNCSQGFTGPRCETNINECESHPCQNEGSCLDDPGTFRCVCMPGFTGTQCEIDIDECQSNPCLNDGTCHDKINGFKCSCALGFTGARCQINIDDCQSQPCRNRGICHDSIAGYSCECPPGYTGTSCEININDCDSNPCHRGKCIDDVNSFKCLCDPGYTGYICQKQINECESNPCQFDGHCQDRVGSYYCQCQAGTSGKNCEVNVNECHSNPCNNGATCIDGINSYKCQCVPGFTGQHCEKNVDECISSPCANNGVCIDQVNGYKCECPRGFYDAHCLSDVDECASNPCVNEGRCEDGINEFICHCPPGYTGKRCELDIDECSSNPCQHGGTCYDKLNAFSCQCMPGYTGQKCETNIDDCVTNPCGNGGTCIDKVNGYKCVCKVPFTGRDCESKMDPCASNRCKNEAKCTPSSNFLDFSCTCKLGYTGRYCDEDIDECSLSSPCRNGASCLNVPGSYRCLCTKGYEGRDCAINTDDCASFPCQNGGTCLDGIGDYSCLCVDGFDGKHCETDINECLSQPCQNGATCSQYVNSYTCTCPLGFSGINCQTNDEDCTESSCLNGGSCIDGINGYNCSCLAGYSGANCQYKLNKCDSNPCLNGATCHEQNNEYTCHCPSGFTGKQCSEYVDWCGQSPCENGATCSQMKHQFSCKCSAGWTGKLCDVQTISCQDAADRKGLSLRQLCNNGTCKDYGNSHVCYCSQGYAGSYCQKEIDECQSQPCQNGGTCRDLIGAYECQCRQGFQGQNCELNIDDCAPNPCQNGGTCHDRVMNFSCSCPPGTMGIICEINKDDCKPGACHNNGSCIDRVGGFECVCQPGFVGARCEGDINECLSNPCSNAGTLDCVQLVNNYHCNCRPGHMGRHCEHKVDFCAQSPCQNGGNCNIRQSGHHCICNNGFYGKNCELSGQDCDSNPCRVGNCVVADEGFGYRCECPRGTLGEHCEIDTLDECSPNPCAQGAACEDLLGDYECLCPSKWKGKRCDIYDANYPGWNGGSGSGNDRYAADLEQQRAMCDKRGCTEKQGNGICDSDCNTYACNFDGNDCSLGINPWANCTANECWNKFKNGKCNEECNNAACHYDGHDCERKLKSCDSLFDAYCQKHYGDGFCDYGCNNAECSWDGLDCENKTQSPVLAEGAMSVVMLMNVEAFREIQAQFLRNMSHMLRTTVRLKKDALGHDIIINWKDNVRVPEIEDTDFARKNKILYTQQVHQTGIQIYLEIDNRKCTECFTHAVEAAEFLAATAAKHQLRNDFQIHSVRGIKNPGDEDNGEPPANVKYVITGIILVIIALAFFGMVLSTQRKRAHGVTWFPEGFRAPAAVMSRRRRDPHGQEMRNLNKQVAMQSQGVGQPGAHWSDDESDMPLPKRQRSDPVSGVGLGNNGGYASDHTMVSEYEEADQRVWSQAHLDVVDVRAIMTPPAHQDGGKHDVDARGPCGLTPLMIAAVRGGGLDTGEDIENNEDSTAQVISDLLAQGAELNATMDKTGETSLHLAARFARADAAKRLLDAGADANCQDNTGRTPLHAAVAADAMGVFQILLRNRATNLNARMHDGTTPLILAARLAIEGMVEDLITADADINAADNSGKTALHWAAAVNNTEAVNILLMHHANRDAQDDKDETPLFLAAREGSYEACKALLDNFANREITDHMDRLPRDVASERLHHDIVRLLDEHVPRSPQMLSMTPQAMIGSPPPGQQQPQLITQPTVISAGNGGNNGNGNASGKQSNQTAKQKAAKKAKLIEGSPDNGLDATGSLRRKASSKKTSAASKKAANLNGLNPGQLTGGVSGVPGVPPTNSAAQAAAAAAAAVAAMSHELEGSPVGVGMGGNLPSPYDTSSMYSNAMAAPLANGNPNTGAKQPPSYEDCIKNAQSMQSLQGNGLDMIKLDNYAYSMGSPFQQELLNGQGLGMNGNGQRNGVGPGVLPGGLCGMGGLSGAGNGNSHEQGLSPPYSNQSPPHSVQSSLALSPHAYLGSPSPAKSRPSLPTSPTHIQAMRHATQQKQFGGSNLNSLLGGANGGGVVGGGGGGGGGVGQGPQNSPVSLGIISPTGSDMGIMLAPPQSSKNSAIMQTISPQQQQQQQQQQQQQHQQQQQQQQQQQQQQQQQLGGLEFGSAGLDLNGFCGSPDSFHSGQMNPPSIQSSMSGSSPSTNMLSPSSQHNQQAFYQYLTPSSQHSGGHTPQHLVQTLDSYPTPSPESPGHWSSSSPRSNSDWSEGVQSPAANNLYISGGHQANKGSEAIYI
Put plainly: S2 cell aggregation assay.
Source text: as §1

In data set [7] the target is B1. The data set can be described thus: S2 cell aggregation assay.
Source text: as §1

For “Notch (Drosophila), full length Notch expression construct #1 pMtNMg, P07207 53-2703”, the fraction of expressing cells found in clusters of four or more stained cells in data set [1] was 32 to 54%; in data set [3] it was -0 to 5%. In addition, in data set [2], the % of Notch+ cells in Notch+-Delta+ cell aggregates amounted to 23%. In data set [4], this molecule came in with a degree of aggregation of 63 to 71%.

Consider B1, for which the binding result in data set [5] was “no binding”.

B2: Delta (Drosophila), expression construct pMTDl1 (ligand)
chain: QVHSSGSFELRLKYFSNDHGRDNEGRCCSGESDGATGKCLGSCKTRFRVCLKHYQATIDTTSQCTYGDVITPILGENSVNLTDAQRFQNKGFTNPIQFPFSFSWPGTFSLIVEAWHDTNNSGNARTNKLLIQRLLVQQVLEVSSEWKTNKSESQYTSLEYDFRVTCDLNYYGSGCAKFCRPRDDSFGHSTCSETGEIICLTGWQGDYCHIPKCAKGCEHGHCDKPNQCVCQLGWKGALCNECVLEPNCIHGTCNKPWTCICNEGWGGLYCNQDLNYCTNHRPCKNGGTCFNTGEGLYTCKCAPGYSGDDCENEIYSCDADVNPCQNGGTCIDEPHTKTGYKCHCANGWSGKMCEEKVLTCSDKPCHQGICRNVRPGLGSKGQGYQCECPIGYSGPNCDLQLDNCSPNPCINGGSCQPSGKCICPAGFSGTRCETNIDDCLGHQCENGGTCIDMVNQYRCQCVPGFHGTHCSSKVDLCLIRPCANGGTCLNLNNDYQCTCRAGFTGKDCSVDIDECSSGPCHNGGTCMNRVNSFECVCANGFRGKQCDEESYDSVTFDAHQYGATTQARADGLTNAQVVLIAVFSVAMPLVAVIAACVVFCMKRKRKRAQEKDDAEARKQNEQNAVATMHHNGSGVGVALASASLGGKTGSNSGLTFDGGNPNIIKNTWDKSVNNICASAAAAAAAAAAADECLMYGGYVASVADNNNANSDFCVAPLQRAKSQKQLNTDPTLMHRGSPAGSSAKGASGGGPGAAEGKRISVLGEGSYCSQRWPSLAAAGVAGACSSQLMAAASAAGSGAGTAQQQRSVVCGTPHM
notes: also called Delta+ cells; L49-6-7 stably transformed Delta expressing cell line
On to B2, for which the binding result was “binds” in data set [6] and “no binding” in data set [7].
